In doi:10.1101/2024.07.23.604836:

Biological target: T1, TLR7-Fc (toll-like receptor 7 ectodomain fused to human Fc) (UniProt Q9NYK1 27-839)
T1 sequence: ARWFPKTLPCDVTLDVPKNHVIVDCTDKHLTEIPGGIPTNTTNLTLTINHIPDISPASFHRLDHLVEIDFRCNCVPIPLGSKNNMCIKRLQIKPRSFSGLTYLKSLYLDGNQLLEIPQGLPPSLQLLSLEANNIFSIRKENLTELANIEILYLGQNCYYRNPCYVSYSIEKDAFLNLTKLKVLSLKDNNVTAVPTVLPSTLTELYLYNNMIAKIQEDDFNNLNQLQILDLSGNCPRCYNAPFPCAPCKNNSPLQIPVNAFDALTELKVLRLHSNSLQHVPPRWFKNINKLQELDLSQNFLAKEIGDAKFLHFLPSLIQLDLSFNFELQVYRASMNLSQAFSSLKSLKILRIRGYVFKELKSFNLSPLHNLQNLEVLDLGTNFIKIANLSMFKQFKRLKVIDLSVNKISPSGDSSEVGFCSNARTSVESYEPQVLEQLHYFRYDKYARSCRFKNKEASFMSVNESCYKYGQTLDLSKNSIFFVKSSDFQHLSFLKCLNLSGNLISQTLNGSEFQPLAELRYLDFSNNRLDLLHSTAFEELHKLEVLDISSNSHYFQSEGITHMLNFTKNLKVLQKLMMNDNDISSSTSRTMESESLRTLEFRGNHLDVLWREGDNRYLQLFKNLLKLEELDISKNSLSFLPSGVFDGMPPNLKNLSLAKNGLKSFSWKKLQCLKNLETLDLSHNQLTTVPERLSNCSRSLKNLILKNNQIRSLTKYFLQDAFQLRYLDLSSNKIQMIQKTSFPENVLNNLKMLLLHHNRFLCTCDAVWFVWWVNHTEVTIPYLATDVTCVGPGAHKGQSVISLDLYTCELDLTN
Experiment: competition

B1: competitor ssRNA (ssRNA)
RNA: GUCUUCAAAACUAGGUCGUUUUAGA
modifications: 5' phosphate; 3' biotin
  binding result: binds
